Measurements: the supplement of paper PMC10567573

B1: ZNF232 (parent)
chain: HSGEKPFICKECGKAYGWCSELIR

Variants of: B1
Experiment: protein stability index of a GFP-peptide fusion (GPS, HEK-293T) (PSI 1-6); higher = more stable
Conditions: c terminus: a fixed tail appended
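Also: lentivirally expressed fusions sorted by FACS into six bins by GFP to DsRed ratio, PSI derived from sequencing read proportions per bin multiplied by bin number.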

Protein stability index, by site and new letter:
K10: R 1.76 | W 1.84 | C 1.7 | Q 2.01 | A 1.68 | V 1.82 | L 1.92 | H 1.75 | F 1.9 | T 1.66 | E 2.33 | M 1.96 | N 1.82 | P 2.07 | D 1.66 | G 1.96 | Y 1.99 | S 2.09 | I 2.01
I8: S 2.28 | H 1.79 | M 2.38 | R 1.44 | N 2.58 | D 2.07 | Q 2.02 | Y 1.74 | W 1.69 | V 1.58 | K 2.09 | T 1.23 | L 1.75 | F 1.51 | C 2.46 | G 2.01 | A 1.7 | E 2.22 | P 1.81
K5: H 1.84 | G 2.38 | A 2.1 | C 1.8 | M 2.05 | S 2.21 | I 2.21 | L 1.65 | Y 1.74 | V 2.08 | W 1.96 | T 1.86 | R 2.57 | D 2.17 | E 3.4 | N 2.23 | F 1.65 | Q 2.12 | P 2.63
G13: C 2.22 | L 1.49 | H 1.77 | I 1.76 | F 1.49 | D 1.97 | A 2.29 | K 1.42 | E 2.14
F7: K 2.54 | Q 2.08 | P 2.11 | E 2.7 | Y 2.52 | I 2.56 | S 2.79 | N 2.24 | L 2.05 | M 2.1 | A 2.22 | D 2.29 | W 2.09 | C 1.73 | V 1.89 | H 2.73 | T 2 | G 2.52 | R 2.12
E11: F 1.77 | H 2.24 | A 2.22 | G 2.19 | C 2.3 | P 1.58 | N 1.61 | V 2.04 | W 2.14 | Q 1.52 | S 2.31 | K 1.62 | T 2.48 | I 2.27 | L 1.7 | R 2.65 | Y 1.98 | D 1.88 | M 2.02
P6: Q 1.35 | M 2.04 | V 2.12 | L 2.2 | I 1.83 | H 2.04 | N 2.37 | Y 1.74 | K 2.91 | D 2.68 | G 2.08 | R 2.23 | T 2.3 | C 2.45 | W 1.69 | E 2.37 | F 1.66 | A 1.74 | S 1.98
C12: M 2.81 | Q 1.88 | V 2.79 | D 2.44 | E 2.64 | A 1.85 | L 3.03 | N 2.72 | P 1.81 | K 2.33 | R 1.79 | T 2.21 | W 2.18 | I 2.5 | G 2.15 | Y 2.15 | S 2.42 | F 2.38 | H 1.43
C9: T 2.34 | H 3.06 | W 2.43 | P 2.23 | Q 2.48 | Y 2.68 | D 2.71 | R 2.32 | F 2.78 | S 1.92 | L 2.25 | E 2.3 | V 2.33 | M 2.6 | A 1.94 | G 1.97 | N 2.09 | I 2.54 | K 2.09
E4: V 1.05 | R 1.6 | Y 1.81 | S 2.52 | W 1.54 | T 1.29
